Laboratory results reported in patent US20210171654A1.

What was measured:
[1] = molecular target: Human SIRPa-His fusion protein (extracellular domain of human SIRPa fused to His-tag) (human) (UniProt P78324); assay: Biacore (surface plasmon resonance), antibody captured, monomeric human SIRPa-His as analyte
[2] = molecular target: Human SIRPa-His fusion protein (extracellular domain of human SIRPa fused to His-tag) (human) (UniProt P78324); assay: SPR, Biacore 3000 at 25 C, antibody captured by goat anti-human antibody, SIRPa-His as analyte

Binder	Kd [1] [nM]	Kd [2] [nM]
1H9 (parental mouse anti-human SIRPa monoclonal antibody) (antibody, V domains shown) VH: QVQLQQPGAERVKPGASVKMSCKASGYTFTSYWITWVKQRPGQGLEWIGDIYPGSGSTNHIEKFKSKATLTVDTSSNTAYMQLSRLTSEDSAVYYCATGYGSSYGYFDYWGQGTTLTVSS VL: DIQMTQSPASLSASVGETVTITCRASENIYSYLAWYQQKQGKSPQLLVYTAKTLAEGVPSRFSGSGSGTQFSLKINSLQPEDFGNYYCQHQYGPPFTFGSGTRLVIK	2.06	
3C2 (parental mouse anti-human SIRPa monoclonal antibody) (antibody, V domains shown) VH: QVQLQQPGAELVRPGSSVKLSCKASGYTFTSYWMHWVKQRPIQGLEWIGNIDPSDSDTHYNQKFKDKATLTVDKSSSTAYMQLSSLTSEDSAVYYCARGYSKYYAMDYWGQGTSVTVSS VL: DVLMTQTPLSLSVSLGDQASISCRSSQSIVHSYGNTYLEWYLQKPGQSPKLLIYKVSNRFSGVPDRFSGSGSGTDFTLKISRVEAEDLGVYYCFQGSHVPYTFGGGTKLEIK	5.58	

The next lines start with the values.

Kd [1] [nM]	Kd [2] [nM]	Binder
	1.15	Humanized 1H9 (antibody, human IgG1, kappa, N297A, V domains shown) VH: QVQLVQSGAEVKKPGASVKVSCKASGYTFTSYWITWVKQAPGQGLEWIGDIYPGSGSTNHIEKFKSKATLTVDTSISTAYMELSRLRSDDTAVYYCATGYGSSYGYFDYWGQGTLVTVSS VL: DIQMTQSPSSLSASVGDRVTITCRASENIYSYLAWYQQKPGKAPKLLIYTAKTLAEGVPSRFSGSGSGTDFTLTISSLQPEDFATYYCQHQYGPPFTFGQGTKLEIKR
	5.53	Humanized 3C2 (antibody, human IgG1, kappa, N297A, V domains shown) VH: QVQLVQSGAEVKKPGASVKVSCKASGYTFTSYWMHWVRQAPGQGLEWMGNIDPSDSDTHYNQKFKDRVTMTRDTSTSTVYMELSSLRSEDTAVYYCARGYSKYYAMDYWGQGTLVTVSS VL: DIVMTQTPLSLSVTPGQPASISCRSSQSIVHSYGNTYLEWYLQKPGQSPQLLIYKVSNRFSGVPDRFSGSGSGTDFTLKISRVEAEDVGVYYCFQGSHVPYTFGQGTKLEIKR
